Experimental data published in article doi:10.1101/2020.12.29.424679 (bioRxiv, 2020).
Each block holds one molecule with its values, some of them ahead of it.

B4: Armadillo domain of HSF2BP (ARM, aa 122 to aa 334) (domain or fragment)
chain: EMGAAACTLLWGVSSSEEVVKAILGGDKALKFFSITGQTMESFVKSLDGDVQELDSDESQFVFALAGIVTNVAAIACGREFLVNSSRVLLDTILQLLGDLKPGQCTKLKVLMLMSLYNVSINLKGLKYISESPGFIPLLWWLLSDPDAEVCLHVLRLVQSVVLEPEVFSKSASEFRSSLPLQRILAMSKSRNPRLQTAAQELLEDLRTLEHNV

Assays:
[1] = target: Mouse HSF2BP-GFP (mouse (knock-in allele in mES cells)) (UniProt Q9D4G2); assay: co-IP
[2] = target: T1, Human full length HSF2BP WT (human, UniProt O75031 1-334); assay: ITC
T1 sequence: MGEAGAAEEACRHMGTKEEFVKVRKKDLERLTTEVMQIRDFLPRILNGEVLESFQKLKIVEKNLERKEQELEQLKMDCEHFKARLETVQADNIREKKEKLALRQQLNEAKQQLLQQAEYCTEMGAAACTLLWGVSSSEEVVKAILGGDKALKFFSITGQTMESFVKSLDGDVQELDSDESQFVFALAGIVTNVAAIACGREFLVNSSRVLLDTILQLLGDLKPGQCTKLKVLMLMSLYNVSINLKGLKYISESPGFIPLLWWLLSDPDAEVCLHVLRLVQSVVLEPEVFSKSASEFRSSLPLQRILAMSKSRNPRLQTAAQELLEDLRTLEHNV

[3] = target: B4; assay: ITC
[4] = target: Mouse BRCA2-GFP Δ12 (mouse (knock-in allele in mES cells)) (UniProt P97929); assay: co-IP
Chain of Mouse BRCA2-GFP Δ12 (mouse (knock-in allele in mES cells)) (P97929 whole entry, stated change not applied): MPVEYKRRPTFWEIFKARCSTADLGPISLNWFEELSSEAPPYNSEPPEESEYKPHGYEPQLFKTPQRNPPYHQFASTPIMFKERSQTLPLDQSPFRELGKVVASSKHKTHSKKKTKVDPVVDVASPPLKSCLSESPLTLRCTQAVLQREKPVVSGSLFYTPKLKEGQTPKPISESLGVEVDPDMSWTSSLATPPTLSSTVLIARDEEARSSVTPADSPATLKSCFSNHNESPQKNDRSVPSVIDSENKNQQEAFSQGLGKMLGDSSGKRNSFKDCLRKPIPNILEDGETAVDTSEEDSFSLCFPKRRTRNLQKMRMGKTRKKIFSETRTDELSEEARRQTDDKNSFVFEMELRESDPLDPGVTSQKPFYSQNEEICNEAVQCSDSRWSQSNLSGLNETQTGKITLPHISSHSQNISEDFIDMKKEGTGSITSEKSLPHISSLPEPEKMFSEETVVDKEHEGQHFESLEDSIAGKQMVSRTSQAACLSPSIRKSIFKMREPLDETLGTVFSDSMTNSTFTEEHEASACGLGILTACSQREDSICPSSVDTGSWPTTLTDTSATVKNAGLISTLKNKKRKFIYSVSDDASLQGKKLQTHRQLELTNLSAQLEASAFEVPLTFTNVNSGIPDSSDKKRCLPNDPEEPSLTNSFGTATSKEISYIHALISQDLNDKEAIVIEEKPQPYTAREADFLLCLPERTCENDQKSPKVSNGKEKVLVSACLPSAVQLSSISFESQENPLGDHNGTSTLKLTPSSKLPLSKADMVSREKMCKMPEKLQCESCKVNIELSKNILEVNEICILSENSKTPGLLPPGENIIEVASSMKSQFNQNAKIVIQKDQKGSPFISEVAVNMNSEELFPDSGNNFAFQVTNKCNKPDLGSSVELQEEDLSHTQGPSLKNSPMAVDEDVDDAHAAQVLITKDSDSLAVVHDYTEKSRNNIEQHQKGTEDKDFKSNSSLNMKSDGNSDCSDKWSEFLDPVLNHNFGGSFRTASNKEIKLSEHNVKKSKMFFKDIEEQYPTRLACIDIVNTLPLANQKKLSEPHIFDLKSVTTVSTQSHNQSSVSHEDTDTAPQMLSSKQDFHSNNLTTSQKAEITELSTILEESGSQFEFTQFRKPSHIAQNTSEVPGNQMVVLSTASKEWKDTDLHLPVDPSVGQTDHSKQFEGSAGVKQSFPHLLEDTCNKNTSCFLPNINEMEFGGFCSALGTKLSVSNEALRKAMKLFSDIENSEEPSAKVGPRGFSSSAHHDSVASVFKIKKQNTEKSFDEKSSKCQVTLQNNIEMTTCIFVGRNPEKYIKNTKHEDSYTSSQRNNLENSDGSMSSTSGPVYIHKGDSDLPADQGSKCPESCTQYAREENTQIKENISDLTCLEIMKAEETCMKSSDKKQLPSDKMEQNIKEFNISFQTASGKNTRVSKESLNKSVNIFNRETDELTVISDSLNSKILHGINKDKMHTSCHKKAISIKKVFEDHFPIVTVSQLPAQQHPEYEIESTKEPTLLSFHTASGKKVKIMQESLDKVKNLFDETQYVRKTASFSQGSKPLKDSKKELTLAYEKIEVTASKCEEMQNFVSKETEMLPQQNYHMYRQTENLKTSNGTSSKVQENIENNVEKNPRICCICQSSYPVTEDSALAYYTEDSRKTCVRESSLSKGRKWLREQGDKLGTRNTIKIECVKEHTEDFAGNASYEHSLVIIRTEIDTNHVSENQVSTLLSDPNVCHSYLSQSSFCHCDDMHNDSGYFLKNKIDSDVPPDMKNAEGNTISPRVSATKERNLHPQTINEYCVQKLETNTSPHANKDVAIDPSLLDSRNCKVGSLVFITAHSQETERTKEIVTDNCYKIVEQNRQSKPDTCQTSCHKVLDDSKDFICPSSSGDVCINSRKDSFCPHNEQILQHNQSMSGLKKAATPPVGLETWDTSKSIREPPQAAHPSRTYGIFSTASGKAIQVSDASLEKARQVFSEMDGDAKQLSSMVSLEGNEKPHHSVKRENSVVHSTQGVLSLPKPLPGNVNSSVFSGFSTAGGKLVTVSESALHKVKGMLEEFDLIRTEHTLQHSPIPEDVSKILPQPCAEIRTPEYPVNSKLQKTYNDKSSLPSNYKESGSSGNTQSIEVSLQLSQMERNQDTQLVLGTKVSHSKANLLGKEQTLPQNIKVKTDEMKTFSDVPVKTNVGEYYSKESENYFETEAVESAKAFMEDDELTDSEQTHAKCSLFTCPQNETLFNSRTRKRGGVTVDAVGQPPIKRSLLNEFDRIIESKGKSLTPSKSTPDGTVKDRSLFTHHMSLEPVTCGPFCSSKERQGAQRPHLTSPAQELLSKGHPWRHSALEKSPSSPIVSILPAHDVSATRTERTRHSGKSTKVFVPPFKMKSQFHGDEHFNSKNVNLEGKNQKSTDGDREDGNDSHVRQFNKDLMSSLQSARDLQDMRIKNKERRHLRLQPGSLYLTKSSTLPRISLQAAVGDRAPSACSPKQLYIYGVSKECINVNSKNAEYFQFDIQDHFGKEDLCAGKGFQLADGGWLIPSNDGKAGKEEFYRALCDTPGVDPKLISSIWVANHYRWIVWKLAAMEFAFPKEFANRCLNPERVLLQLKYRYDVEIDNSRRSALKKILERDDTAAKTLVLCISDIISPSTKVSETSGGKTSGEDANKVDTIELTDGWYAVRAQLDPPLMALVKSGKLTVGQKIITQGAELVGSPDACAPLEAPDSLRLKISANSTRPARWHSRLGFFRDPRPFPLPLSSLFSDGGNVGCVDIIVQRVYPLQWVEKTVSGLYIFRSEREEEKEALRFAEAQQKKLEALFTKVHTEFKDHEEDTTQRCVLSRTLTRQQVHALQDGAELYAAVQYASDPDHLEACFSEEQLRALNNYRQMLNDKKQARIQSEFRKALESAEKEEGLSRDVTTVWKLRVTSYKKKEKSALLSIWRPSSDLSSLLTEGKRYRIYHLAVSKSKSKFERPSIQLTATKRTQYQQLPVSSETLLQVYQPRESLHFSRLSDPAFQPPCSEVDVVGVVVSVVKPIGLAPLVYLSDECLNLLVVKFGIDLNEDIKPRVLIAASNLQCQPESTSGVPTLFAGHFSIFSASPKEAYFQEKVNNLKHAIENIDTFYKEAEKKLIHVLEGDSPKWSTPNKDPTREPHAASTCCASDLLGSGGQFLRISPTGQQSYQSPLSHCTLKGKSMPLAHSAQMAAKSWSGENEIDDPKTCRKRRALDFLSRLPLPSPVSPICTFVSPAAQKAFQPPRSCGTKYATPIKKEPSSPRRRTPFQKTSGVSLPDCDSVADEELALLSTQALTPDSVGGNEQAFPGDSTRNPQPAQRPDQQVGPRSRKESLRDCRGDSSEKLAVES

[5] = target: the molecule itself; assay: SEC-MALS + other: SEC-SAXS
[6] = target: the molecule itself; assay: SEC-MALS

Molecule: BRCA2 peptide F15XΔ12 (D2312-E2342)
- fold weaker affinity than HSF2BP for F0 [2]: 1000 fold
- stoichiometry N [2]: 1

B1: Human BRCA2 fragment F15X (N2291-Q2342) (peptide)
chain: NEFDRIIENQEKSLKASKSTPDGTIKDRRLFMHHVSLEPITTVPFRTTKERQ
- Kd [3]: ~10 nM
- fold higher affinity than ARM for F0 [3]: ~3 fold

B3: Human BRCA2 fragment F0 (S2213-Q2342, C2332T) (domain or fragment)
chain: STYSKDSENYFETEAVEIAKAFMEDDELTDSKLPSHATHSLFTCPENEEMVLSNSRIGKRRGEPLILVGEPSIKRNLLNEFDRIIENQEKSLKASKSTPDGTIKDRRLFMHHVSLEPITTVPFRTTKERQ
- stoichiometry N [3]: 0.5
- Kd [2]: 1 nM
- fold tighter binding than ARM to F0 [2]: ~25 fold
- stoichiometry N [2]: 0.5

Molecule: B4
- stoichiometry N [5]: 4
- stoichiometry N [6]: 2

B5: Human BRCA2 fragment FNMR (S2252-Q2342) (domain or fragment)
chain: SLFTCPENEEMVLSNSRIGKRRGEPLILVGEPSIKRNLLNEFDRIIENQEKSLKASKSTPDGTIKDRRLFMHHVSLEPITTVPFRTTKERQ
- Kd [3]: ~10 nM
- fold higher affinity than ARM for F0 [3]: ~3 fold

The next lines start with the values.

- percent loss of co-precipitation against wild-type BRCA2 [1]: 97 to 99%
Molecule: Mouse BRCA2-Δ12 (from UniProt P97929 1-3329) (natural protein)

- percent loss of co-precipitation against full-length BRCA2-GFP [4]: 95%
B2: Mouse HSF2BP, natively expressed in ES cells (natural protein)
chain: MAATVGDGSGTEEACRNMESKEEFVKVRKKDLERLTTEVMQIRDFLPRILNGELLESFQKLKMVEKNLERKEQELEQLIMDREHFKARLETAQADSGREKKEKLALRQQLNEAKQQLLQQAEYCTQMGAVTCTLLWGVSSSEEVVKTILGGDKALKFFNITGQTMESFVKSLDGDVKEVDSDENQFVFALAGIVTNVAAIACGREFLVNSSRVLLDTMLQLLGDLKPGQCTKLKVLMLMSLYNVSINSKGLKYITESPGFIPLLWWLLSDPDAEVCLHTLRLIQSVVLEPDVFSKVASELQSSLPLQRILAMSKSRNSHLQSAAQELLEDLRALDCNV
